Consider 2 molecules from article PMC2114693 (The Journal of Cell Biology, 1987).

Experiment [1] deals with human erythrocyte spectrin (human, UniProt P02549;P11277). The experiment is described as follows: co-sedimentation.
In experiment [2] the target is chicken skeletal muscle actin (chicken, UniProt P68139 1-377). The experiment is described as follows: co-sedimentation.

Values joined by “and” are separate entries in the source; they are usually repeats but may differ in a detail not shown here. Equal values may be shown once.

Chain of human erythrocyte spectrin (P02549 whole entry, chain 1 of 2): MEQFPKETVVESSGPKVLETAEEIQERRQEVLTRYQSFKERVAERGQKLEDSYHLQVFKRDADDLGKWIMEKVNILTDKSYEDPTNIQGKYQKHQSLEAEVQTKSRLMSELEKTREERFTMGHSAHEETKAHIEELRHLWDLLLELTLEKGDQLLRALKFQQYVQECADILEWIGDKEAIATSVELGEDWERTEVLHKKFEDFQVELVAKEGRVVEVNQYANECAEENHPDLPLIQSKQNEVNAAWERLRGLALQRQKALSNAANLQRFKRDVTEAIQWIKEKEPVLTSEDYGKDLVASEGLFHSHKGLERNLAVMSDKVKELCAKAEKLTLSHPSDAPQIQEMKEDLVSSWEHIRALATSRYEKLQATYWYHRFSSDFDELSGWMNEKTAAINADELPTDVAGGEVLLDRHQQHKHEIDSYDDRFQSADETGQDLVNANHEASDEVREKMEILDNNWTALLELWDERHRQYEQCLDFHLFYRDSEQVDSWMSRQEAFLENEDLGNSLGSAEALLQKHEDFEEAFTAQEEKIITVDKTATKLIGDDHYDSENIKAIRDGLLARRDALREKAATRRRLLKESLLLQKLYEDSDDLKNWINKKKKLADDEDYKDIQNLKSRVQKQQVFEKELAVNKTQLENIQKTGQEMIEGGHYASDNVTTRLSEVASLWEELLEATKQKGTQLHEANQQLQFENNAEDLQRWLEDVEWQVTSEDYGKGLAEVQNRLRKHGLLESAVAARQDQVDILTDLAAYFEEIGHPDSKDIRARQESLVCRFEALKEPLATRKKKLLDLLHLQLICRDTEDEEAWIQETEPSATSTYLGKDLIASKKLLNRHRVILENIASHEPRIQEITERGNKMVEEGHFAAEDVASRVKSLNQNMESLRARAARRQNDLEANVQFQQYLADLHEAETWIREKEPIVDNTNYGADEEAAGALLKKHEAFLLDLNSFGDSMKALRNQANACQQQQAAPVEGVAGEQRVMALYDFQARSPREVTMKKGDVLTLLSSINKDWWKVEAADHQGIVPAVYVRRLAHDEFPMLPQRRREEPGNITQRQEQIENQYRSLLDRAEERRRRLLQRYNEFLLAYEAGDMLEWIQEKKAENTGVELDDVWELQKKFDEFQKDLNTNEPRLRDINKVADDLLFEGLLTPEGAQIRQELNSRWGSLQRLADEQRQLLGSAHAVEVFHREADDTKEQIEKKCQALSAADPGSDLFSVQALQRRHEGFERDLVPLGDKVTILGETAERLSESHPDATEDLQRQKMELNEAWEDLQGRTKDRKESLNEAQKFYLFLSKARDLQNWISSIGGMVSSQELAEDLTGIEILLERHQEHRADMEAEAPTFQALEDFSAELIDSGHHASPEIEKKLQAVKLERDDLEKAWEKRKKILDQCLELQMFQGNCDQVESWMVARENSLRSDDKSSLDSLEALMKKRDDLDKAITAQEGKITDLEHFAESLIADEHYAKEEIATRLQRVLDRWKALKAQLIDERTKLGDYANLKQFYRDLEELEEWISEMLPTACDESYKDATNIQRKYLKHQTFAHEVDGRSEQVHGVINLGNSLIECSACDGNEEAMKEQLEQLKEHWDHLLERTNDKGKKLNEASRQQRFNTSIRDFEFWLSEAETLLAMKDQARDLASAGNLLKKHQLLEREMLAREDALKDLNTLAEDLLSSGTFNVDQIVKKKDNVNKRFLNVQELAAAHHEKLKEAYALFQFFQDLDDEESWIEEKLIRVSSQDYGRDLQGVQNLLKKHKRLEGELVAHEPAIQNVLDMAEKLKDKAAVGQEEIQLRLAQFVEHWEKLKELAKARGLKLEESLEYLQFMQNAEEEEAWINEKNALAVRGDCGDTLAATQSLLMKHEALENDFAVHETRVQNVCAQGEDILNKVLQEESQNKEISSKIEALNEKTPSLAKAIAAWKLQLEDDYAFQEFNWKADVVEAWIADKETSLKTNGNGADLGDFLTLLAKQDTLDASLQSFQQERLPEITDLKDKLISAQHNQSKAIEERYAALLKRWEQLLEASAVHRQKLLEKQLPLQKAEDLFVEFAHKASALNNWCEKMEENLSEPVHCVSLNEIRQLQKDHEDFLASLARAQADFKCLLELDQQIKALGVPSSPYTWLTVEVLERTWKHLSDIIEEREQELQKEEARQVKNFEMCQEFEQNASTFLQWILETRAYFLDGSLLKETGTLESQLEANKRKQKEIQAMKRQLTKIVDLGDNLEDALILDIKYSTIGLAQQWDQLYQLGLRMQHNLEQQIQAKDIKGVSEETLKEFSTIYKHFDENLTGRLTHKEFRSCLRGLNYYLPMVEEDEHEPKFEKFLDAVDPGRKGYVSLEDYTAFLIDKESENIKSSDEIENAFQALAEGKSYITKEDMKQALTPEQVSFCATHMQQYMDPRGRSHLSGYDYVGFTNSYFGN
Chain of human erythrocyte spectrin (P11277 whole entry, chain 2 of 2): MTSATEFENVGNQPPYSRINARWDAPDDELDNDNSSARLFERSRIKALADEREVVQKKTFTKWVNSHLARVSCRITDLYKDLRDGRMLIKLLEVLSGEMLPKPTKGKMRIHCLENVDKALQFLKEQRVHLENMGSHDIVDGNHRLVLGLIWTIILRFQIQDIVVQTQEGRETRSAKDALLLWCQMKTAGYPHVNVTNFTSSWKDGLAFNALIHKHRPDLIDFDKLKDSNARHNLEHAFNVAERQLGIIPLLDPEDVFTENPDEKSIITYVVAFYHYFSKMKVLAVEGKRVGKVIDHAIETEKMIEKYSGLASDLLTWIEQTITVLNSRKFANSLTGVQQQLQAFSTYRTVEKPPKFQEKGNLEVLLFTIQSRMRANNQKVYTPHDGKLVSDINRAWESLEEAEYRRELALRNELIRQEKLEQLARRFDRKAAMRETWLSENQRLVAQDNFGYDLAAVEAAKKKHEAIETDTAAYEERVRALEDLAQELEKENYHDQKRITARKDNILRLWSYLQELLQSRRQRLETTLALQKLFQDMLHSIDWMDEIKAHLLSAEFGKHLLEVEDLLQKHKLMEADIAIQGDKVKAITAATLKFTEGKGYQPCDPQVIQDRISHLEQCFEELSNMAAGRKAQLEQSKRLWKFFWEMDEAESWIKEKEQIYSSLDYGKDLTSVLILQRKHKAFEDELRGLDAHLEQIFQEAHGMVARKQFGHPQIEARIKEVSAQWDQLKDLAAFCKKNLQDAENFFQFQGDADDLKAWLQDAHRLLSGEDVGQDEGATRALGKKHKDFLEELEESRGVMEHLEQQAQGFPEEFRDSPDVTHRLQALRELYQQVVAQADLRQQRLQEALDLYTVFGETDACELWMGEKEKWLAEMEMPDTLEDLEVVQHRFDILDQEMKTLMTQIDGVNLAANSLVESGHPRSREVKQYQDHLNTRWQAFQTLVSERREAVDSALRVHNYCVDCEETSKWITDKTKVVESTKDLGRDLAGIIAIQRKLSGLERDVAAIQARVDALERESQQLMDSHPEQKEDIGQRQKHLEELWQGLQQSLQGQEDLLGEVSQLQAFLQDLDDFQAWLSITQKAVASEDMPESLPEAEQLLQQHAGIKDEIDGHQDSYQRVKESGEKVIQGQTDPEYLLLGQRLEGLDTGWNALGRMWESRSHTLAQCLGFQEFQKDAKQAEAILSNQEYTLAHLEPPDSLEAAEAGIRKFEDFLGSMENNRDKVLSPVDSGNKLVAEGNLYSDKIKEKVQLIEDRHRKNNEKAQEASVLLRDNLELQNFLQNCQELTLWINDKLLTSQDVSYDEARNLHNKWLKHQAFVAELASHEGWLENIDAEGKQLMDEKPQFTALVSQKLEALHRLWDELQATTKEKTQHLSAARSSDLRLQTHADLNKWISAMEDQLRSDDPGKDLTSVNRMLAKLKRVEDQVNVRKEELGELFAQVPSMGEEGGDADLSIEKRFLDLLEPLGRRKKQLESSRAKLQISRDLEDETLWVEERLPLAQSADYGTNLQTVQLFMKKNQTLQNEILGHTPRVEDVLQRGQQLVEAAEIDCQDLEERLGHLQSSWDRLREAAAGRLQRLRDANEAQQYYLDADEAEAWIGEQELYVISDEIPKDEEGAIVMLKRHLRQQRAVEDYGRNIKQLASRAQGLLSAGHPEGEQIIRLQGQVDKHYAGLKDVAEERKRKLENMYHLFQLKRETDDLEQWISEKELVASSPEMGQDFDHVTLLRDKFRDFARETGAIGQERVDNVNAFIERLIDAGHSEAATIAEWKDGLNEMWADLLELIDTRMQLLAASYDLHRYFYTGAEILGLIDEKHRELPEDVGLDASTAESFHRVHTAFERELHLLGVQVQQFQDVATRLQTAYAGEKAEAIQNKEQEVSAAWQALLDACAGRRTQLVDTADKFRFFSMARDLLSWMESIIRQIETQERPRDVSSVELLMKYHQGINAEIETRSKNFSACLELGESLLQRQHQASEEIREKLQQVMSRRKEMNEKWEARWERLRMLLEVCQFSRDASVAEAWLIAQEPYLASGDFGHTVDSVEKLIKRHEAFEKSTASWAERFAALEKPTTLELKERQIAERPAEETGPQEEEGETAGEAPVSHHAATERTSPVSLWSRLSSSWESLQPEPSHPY

B1: adducin-actin complex (complex)
chain 1: MNGDSRAAVVTSPPPTTAPHKERYFDRVDENNPEYLRERNMAPDLRQDFNMMEQKKRVSMILQSPAFCEELESMIQEQFKKGKNPTGLLALQQIADFMTTNVPNVYPAAPQGGMAALNMSLGMVTPVNDLRGSDSIAYDKGEKLLRCKLAAFYRLADLFGWSQLIYNHITTRVNSEQEHFLIVPFGLLYSEVTASSLVKINLQGDIVDRGSTNLGVNQAGFTLHSAIYAARPDVKCVVHIHTPAGAAVSAMKCGLLPISPEALSLGEVAYHDYHGILVDEEEKVLIQKNLGPKSKVLILRNHGLVSVGESVEEAFYYIHNLVVACEIQVRTLASAGGPDNLVLLNPEKYKAKSRSPGSPVGEGTGSPPKWQIGEQEFEALMRMLDNLGYRTGYPYRYPALREKSKKYSDVEVPASVTGYSFASDGDSGTCSPLRHSFQKQQREKTRWLNSGRGDEASEEGQNGSSPKSKTKWTKEDGHRTSTSAVPNLFVPLNTNPKEVQEMRNKIREQNLQDIKTAGPQSQVLCGVVMDRSLVQGELVTASKAIIEKEYQPHVIVSTTGPNPFTTLTDRELEEYRREVERKQKGSEENLDEAREQKEKSPPDQPAVPHPPPSTPIKLEEDLVPEPTTGDDSDAATFKPTLPDLSPDEPSEALGFPMLEKEEEAHRPPSPTEAPTEASPEPAPDPAPVAEEAAPSAVEEGAAADPGSDGSPGKSPSKKKKKFRTPSFLKKSKKKSDS
chain 2: MSEETVPEAASPPPPQGQPYFDRFSEDDPEYMRLRNRAADLRQDFNLMEQKKRVTMILQSPSFREELEGLIQEQMKKGNNSSNIWALRQIADFMASTSHAVFPTSSMNVSMMTPINDLHTADSLNLAKGERLMRCKISSVYRLLDLYGWAQLSDTYVTLRVSKEQDHFLISPKGVSCSEVTASSLIKVNILGEVVEKGSSCFPVDTTGFCLHSAIYAARPDVRCIIHLHTPATAAVSAMKWGLLPVSHNALLVGDMAYYDFNGEMEQEADRINLQKCLGPTCKILVLRNHGVVALGDTVEEAFYKIFHLQAACEIQVSALSSAGGVENLILLEQEKHRPHEVGSVQWAGSTFGPMQKSRLGEHEFEALMRMLDNLGYRTGYTYRHPFVQEKTKHKSEVEIPATVTAFVFEEDGAPVPALRQHAQKQQKEKTRWLNTPNTYLRVNVADEVQRSMGSPRPKTTWMKADEVEKSSSGMPIRIENPNQFVPLYTDPQEVLEMRNKIREQNRQDVKSAGPQSQLLASVIAEKSRSPSTESQLMSKGDEDTKDDSEETVPNPFSQLTDQELEEYKKEVERKKLELDGEKETAPEEPGSPAKSAPASPVQSPAKEAETKSPLVSPSKSLEEGTKKTETSKAATTEPETTQPEGVVVNGREEEQTAEEILSKGLSQMTTSADTDVDTSKDKTESVTSGPMSPEGSPSKSPSKKKKKFRTPSFLKKSKKKEKVES
chain 3: […]
In the case of B1, the dissociation constant (Kd) – broadly, the concentration at which binding is half-saturated – in experiment [1] was determined as 104 nM.

B2: human erythrocyte adducin (complex)
chain 1: B1 chain 1
chain 2: B1 chain 2
Regarding B2, in experiment [2], the affinity, expressed as Kd, was 283 nM; the stoichiometry N – broadly, the number of molecules, sites or subunits per partner or assembly – is ~0.143 M/M (adducin to actin) and 0.16 M/M (adducin to actin).
